Data: patent US20100285451A1

Biological target: Somatostatin 2 receptor-eYFP-α fusion (E. coli)
Test: cell-based or functional assay

somatostatin-14 (from UniProt P61278 103-116) (peptide)
EC50, arrestin assay (β-galactosidase complementation of β-arrestin-ω + GPCR-eYFP-α): 3 nM | EC50, internalization assay (β-galactosidase complementation of FYVE-ω + GPCR-eYFP-α): 7 nM | fold induction, internalization assay: 3 fold
